# Measurements published in patent US20190227052A1 (published 2019).
# Changes are numbered by the printed parent chain.
# B1: 1A03 anti-NRP1 IgG antibody (antibody, V domains shown)
# VH: EVQLLESGGGLVQFGGSLRLSQAASGFTFSSYYMSWVRQAFGKGLEWVSAISFGSSNKYYADSVQGRFTISRDNSKNTLYLQMNELRAEDTAVYYCARRKKSFDYWGQGTLVTVSS
# VL: QSVLTQFFSASGTPGQRVTISCSGFSSNIGNNDVSWYQQLFGTAPKLLIYSCNNRPSGVPDRFSGSKSGTSASLAISGLSSDEADYYCGAWVASLSAYVFGGGTKLTVTL
# B2: IRCR-101 (3H10 converted into IgG format) (antibody, V domains shown)
# VH: B1 VH with G15Q, G16Q, G26Q, F53P, Q65K, K101Y, S102M
# VL: GSVLTQPPSASGTPGQRVTISCTGESSNIGNNDVYWYQQLPGTAFKLLIYSQSNRSGMPDRFSGSKSGTSASLAISGLRSEDEADYYCASWDSSLSGYVFGGGTKLTVTL
# Biological target: human NRP1 protein (human, UniProt O14786 22-856)
# Assay: ELISA
# Chain of human NRP1 protein (O14786 22-856): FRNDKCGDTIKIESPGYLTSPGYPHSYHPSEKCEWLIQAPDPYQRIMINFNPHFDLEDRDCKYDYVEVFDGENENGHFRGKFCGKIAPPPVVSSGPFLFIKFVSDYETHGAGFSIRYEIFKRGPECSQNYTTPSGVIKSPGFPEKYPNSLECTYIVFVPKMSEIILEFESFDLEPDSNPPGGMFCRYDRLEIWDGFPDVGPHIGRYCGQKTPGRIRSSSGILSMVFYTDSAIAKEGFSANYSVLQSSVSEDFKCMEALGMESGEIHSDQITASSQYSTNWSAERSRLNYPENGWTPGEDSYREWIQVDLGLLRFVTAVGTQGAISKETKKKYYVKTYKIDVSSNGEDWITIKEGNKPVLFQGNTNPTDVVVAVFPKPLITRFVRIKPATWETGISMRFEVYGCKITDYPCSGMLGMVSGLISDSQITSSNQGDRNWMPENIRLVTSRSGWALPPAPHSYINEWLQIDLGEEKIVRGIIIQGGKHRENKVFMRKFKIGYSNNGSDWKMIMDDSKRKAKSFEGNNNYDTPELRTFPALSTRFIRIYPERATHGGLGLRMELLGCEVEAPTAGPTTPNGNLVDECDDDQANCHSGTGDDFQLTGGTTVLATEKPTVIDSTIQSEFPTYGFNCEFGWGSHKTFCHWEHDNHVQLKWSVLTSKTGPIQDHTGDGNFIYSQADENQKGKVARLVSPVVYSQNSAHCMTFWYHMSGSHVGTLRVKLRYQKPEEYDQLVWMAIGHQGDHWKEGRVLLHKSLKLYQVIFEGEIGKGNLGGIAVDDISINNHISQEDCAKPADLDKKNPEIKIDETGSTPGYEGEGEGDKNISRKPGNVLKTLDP
binder,measurement,value
B1,Kd,1110 nM
B2,Kd,426 nM
